# Target: T1, TON_1525 wild-type (putative transcriptional regulator) (Thermococcus onnurineus NA1) (UniProt B6YTS4)
# T1 sequence: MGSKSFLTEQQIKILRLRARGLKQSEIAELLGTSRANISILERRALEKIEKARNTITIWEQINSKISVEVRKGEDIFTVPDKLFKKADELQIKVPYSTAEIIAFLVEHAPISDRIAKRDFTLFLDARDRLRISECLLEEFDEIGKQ
# Test: EMSA
# Conditions: EMSA: 100 nM DNA, 20 mM Tris-HCl, 200 mM KCl, 1 mM EDTA, 5% glycerol, pH 7.5, 80 C for 10 min; 5% native PAGE
sequence,measurement,value
GAGAGTTTTACTGTCTCTAAATGAAAGGTTCTAATACGGTGGATCGAATAATTTCTTGCGTTTTTATCCGGATCGCCGAACACGATTCCATCTTAAAATCTTTTTGTTTACATTATACGAGGTGATCAACAATGCCAGCTTTTTCCGGTT (double strand) [CODH promoter 150-bp probe],binding,binds

# From article PMC4791640
